Data taken from the supplement of paper PMC12042874.
± gives the uncertainty stated by the source.

test: amyloid nucleation score (Sup35N fusion, yeast selection) (log enrichment); library NNK1; higher = more nucleation; inactive = no reads after selection
Procedure, shortened: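 The nucleation score is the log enrichment of output over input reads, calculated with DiMSum and centred on the mode score of non-aggregating sequences. Sequences with under 100 input reads were excluded. Reads came from Illumina sequencing of plasmid inserts from psi-negative yeast expressing Sup35N fused to peptides of 20 random codons, induced 24 hours with 100 μM copper sulfate and grown 7 days at 30°C without adenine and uracil.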

Substance | amyloid nucleation score
PTMLKNRGVLSQPHIIFSYR | -0.333 ± 0.34
LSGGWEVPQVVAERKARPWI | -0.037 ± 1.7
LWLLYVIECHLGCYRTVLMG | -0.385 ± 0.93
SIYKSSEREVVY | inactive
PLYKAVLTDK | inactive
ATAHCWLRQESGEFGDLWIP | 0.276 ± 0.19
KELCGLRGYTFYEQF | 0.588 ± 0.74
MCCCLDDEGDHLNWFKRLRC | 1.52 ± 0.49
TITIVVRYVETRCGNIRDVE | 0.794 ± 0.45
FTFYYCIRY | 0.673 ± 0.47
IFVYRRRMGSIV | 1.08 ± 0.32
RYGAESELTPRSASHGYWKF | -0.313 ± 1.1
AVVLLLNRTD | 0.282 ± 0.59
RQGLGAVVNENV | 0.137 ± 0.43
RLFALLWNDFDRSGVAMPVL | -0.379 ± 0.36
DKNGIPYISCEYNQM | -0.46 ± 0.72
YWGTS | 0.971 ± 0.49
NRSYNN | -0.243 ± 0.29
FLYVNLL | 0.091 ± 0.19
KKRPRYRRWTS | 0.578 ± 0.52
AFRRNSPVSWSRR | 0.37 ± 0.35
FCSLLHPFTWYLSEHSMGLG | 0.541 ± 0.57
NRTDKKDTLRWLFPT | 0.435 ± 0.81
MVDFNSRSKYSVYLSHRGKF | 1.7 ± 0.11
TVFFCNWVEPYDFNICR | 6.763 ± 0.059

Substance | amyloid nucleation score
FSYNVVLRFSLRISSNYFAS | -1.12 ± 0.86
VGIWLGTGTWGCKGL | 0.485 ± 0.66
AVLNQYRELKQAGSFYVSTM | 0.618 ± 0.52
CGMVGWTSLPEQNRYPIPST | -0.511 ± 1.1
FFVVVRAHIDPR | 0.188 ± 0.5
AICKRRQLRVLSQALRLSLL | 1.14 ± 0.4
LFHGCLVGLSMRKVKKKNPA | 0.277 ± 0.28
KLILWGRLSANNFYYSFGFL | -0.214 ± 0.27
DIGAVIAWSNRLVWLQPTLL | -0.506 ± 0.84
IDFYVCDMC | 7.857 ± 0.058
GHKNTRILQV | -0.444 ± 1.9
RYLIPTYF | -1.76 ± 0.57
LLRLFALLTLNNLV | -0.296 ± 0.31
IFEWFVPLEWSV | 0.012 ± 1.4
STNLMKMWLFHLRDTAR | 0.583 ± 0.37
ATGARLKLCQELRSTLGMLT | -0.608 ± 0.45
FRGRDSCGHH | 0.101 ± 0.44
LPCYSSLQSLGQRMQVKG | 0.025 ± 0.31
AHSCSLV | 0.61 ± 0.7
FYFLKDY | -0.763 ± 0.3
FRLMVPGVCRRLANGLRMIW | -0.3 ± 0.35
IFYFELPKFCKIKDISSKWV | inactive
GKWFVKRGRIRSAENCIRLF | -0.785 ± 1.1
GSSTVNL | -0.345 ± 1.7
IFCITGAGLLDRCSSRTLAS | -0.175 ± 0.41

Substance | amyloid nucleation score
ELYSDHIMTWM | 0.69 ± 0.36
MWPRIPLRDPVVWEHRYCGI | -0.391 ± 0.65
SMTSWWVRGLLPVNGD | 2.53 ± 0.13
WWYQCHCSYYHAIGITSVQE | 1.39 ± 0.63
RWNFFTFWFLW | 0.048 ± 0.46
TLRLSFCRYMAFWHCNRSMA | -1.14 ± 1.1
ITYIRHYCKPVVL | 5.65 ± 0.11
FPSLNNVNPSGFCSISSFRG | inactive
ILYFMLSRFTVVN | 0.881 ± 0.76
FILPLCMGVLLSAIETLGTC | 1.09 ± 0.81
VIHVSTYDSGVLPLKEDGTF | 0.151 ± 0.4
MCDCLPPCDSGWNFFEWGWE | -0.131 ± 0.69
KVFSVHRHCQESVVGAVLCS | -0.371 ± 0.73
HNFEFFMGQGMIFWCRLTEN | 1.24 ± 0.56
GVDRVRQCRARALDFSIGS | -0.372 ± 0.62
GIDTKDFFVAGMLGCVEGMD | 0.245 ± 0.7
CVALGGLMAMLIASVIWENN | -0.354 ± 0.72
DWPFQYDVKSRLVILLWFVR | 0.086 ± 1.4
FYKTL | -1.19 ± 1.2
GPHLIKVCFSEPMGFKVFLL | 2.12 ± 0.14
IISLVNVWQNMCR | 5.15 ± 0.077
KCDRHLKSYWSKELHYYYNF | -0.894 ± 0.38
EFGFVWVKLCNWGISLLQVN | inactive
IIRDSFKNRPETAYTHRTWD | 1.13 ± 0.15
EGYPTMSMNSRS | 0.716 ± 0.44

Substance | amyloid nucleation score
SHLLLHSLWSDPGIIVDLYT | inactive
TIECFYGVVSFRHNQYYGAQ | 2.16 ± 0.17
DAVPSFTA | -0.666 ± 0.69
TRHGLGRFVHSRTVVFIGIW | -0.642 ± 0.82
FRKFSCCVGSLVSSSYVLDS | 6.16 ± 0.064
VHSGNMMSNFGWAERLHKKA | -0.39 ± 1.2
YMGPFVPFSRTTAYNVSTFK | 0.42 ± 0.79
AMRLMDILCLIVCPHEYMWP | 1.54 ± 0.17
ERPTWVGGDGSSGLVVGSDL | -0.22 ± 0.81
DNMFDTWLSGATV | -0.554 ± 0.66
RDNFEMFSPAAKYALFASGT | inactive
LAPNNYAFHVNKSWGMNLVW | 1.05 ± 0.2
MLLIRNFQFTTLFVCHFSAE | -0.038 ± 0.16
DLSMKRVDKAPCYGNGDYRT | -0.644 ± 0.98
KSLFVLVWTLLLPT | -0.223 ± 0.35
PTGNGKLFSGKYYPYDVRRS | -0.169 ± 0.29
INNTLNI | 0.793 ± 0.47
HWCYVLNS | inactive
MCDYFYNIVFVKCCALWCLD | 4.01 ± 0.069
EVMPPLKLPRHFEEIRAEAG | -0.184 ± 0.51
VMKGSRHVRDKRALYYDILR | -0.308 ± 0.59
LGTIVVSSVGKLGIIMTRAE | 1.3 ± 0.15
VYTDLKGENAGGIIYCGIGS | 0.445 ± 0.26
ARTDWFLNSRSSDYAIGFPY | -0.157 ± 0.79
LLVWNVNGSAMSCNDRCLQS | 7.141 ± 0.049

Substance | amyloid nucleation score
MKLMKPGTLSSWCFFDSSGV | 0.016 ± 0.51
RLYSYVFSGSPHIGWHLCSM | 3.82 ± 0.11
SCDFILLLAVT | 0.352 ± 0.36
GNFHQPFFLMVVFQHARAPL | 6.291 ± 0.054
VRIRPISPMPDYSPPANWSK | 0.041 ± 0.47
YLIVVLCRRCLMGSGYNRIG | -0.368 ± 0.97
LYSAGRCYARSCVKL | 0.829 ± 0.27
RIYSFHILVS | -0.629 ± 0.38
LMWGIAYCYSVDLC | 5.386 ± 0.051
VYGSIKSVEANTVWML | 3.32 ± 0.16
ANGMEGL | 1.13 ± 0.81
GIGAGYKFNDTVFSEGCSSG | 0.653 ± 0.93
RQFRIGNYENFATREWALGL | 1.7 ± 0.14
KSMMDMSYLMEYIGI | -2.65 ± 2.4
CGVMDGYLTAK | -0.619 ± 0.32
DRSTIWSTHNSTYVVYYLVV | 5.18 ± 0.063
GLGVVPITAERRVSLRYSEC | -0.242 ± 0.35
LCLSSWGLTLSLLIDCIYNR | -0.53 ± 0.48
FYSFWMGRTCMFIVTRVNSA | -0.091 ± 0.31
IIIRCKSVVA | -0.656 ± 1.9
ILYTSTVGTQLPKDGLDC | 0.593 ± 0.34
NKYVVETDH | -0.604 ± 1.1
LKYLR | 1.14 ± 0.15
HLSLPNVPVALWKRSRPVTM | 1.26 ± 0.85
IKPDWKMKNRDGTTTKLI | 2.6 ± 0.093

Substance | amyloid nucleation score
DWMNYVWTVTRIGSYSMVGI | 1 ± 0.68
SRLVCLVNYVGGGYIETITL | 4.02 ± 0.1
LPFVDLKFL | 0.374 ± 0.28
LSLNSHYCDDCVWLFR | 1.02 ± 0.45
DRRRVVNINARQSVNIRFRM | 8.53 ± 0.044
LRTISNVDLLSVS | 0.138 ± 0.54
WVCSNNMHMSIANVGLDCNL | 0.178 ± 0.33
MASRHKEWRCVMYEHGLRAC | 0.58 ± 1.2
QRIFTRLIYIRYAIPKFRTK | -0.399 ± 0.32
YIFWLYWRQSSSNCLGDVKW | -0.46 ± 0.46
NCDDIYKYMVIVQGSQLFI | -0.211 ± 0.32
SDRNERSVLSTCFGGCVPTG | 1.14 ± 0.24
VRLFMYMCIWMFMSDSSIWG | -0.348 ± 0.64
LMLISHEDFLLVFAWFN | -0.062 ± 0.54
YFCCALSNLLFRKSKHDRVR | 6.872 ± 0.068
SGRYMWQEISLMFCLSDVSP | 0.836 ± 0.58
FHDLGSKCYSMRGTADCFSR | 0.347 ± 0.72
WRESSGTNLSAFVPKDM | -0.675 ± 0.81
SSGHSVRVDNKTGVWVWPVG | -0.329 ± 1.6
ICVGGNGADCFKMTTGGQLC | -0.481 ± 0.5
HVYSSVLCQQD | 0.717 ± 0.65
HCYGIVEFSSSCCEFFRHGV | 6.36 ± 0.092
YLDGVECTN | -0.366 ± 0.63
VISHEPAVFPTSRS | 0.121 ± 0.45
DFILQMLL | 0.401 ± 0.3

Substance | amyloid nucleation score
QFMIICHMMVNNW | 7.003 ± 0.044
FIHALLSNYVSIIFSNDRIC | 2.31 ± 0.59
FGQCSSLVLT | inactive
YRFKFGVKWLAPNFLPAFGY | inactive
HSSAEIMPGHISGTWGLCDK | -0.62 ± 0.87
WIYRFPHKMHVIEDVRSVN | 0.894 ± 0.58
VWCVVVCMSRQGKYTLCRWR | 0.444 ± 0.97
VHDENYDRFQGFVLDMLQAH | 0.641 ± 0.37
RCVSFPIWRFIPEVLVIWLG | -1.04 ± 1.3
WVWSLWYSRDGVKVFFDRQS | -0.39 ± 0.34
IVASSISAQVSLLYRALCIY | 3.69 ± 0.16
HIIQNLV | 0.25 ± 0.77
NFNRRRLCIIMKFDDPPLHG | 0.102 ± 0.24
RNHCVYLECFDLVNHWMPKD | -0.24 ± 0.64
INIVVMGMAGRRQGVPVACV | 1.59 ± 0.72
INTSR | 0.038 ± 0.23
IVGIVT | 1.04 ± 0.35
QHTNTSLSVTTPPVLYWNHC | 0.419 ± 0.45
WKQLTCWSEILDTIDSL | 0.901 ± 0.79
YDPPTWIHNAMGG | 0.342 ± 0.41
FPNLHLTELCLGRIYVRACY | inactive
SRVISLPVLKI | -0.302 ± 0.9
